# Assay results as given in publication PMC5110560, “A Wheat Cinnamyl Alcohol Dehydrogenase TaCAD12 Contributes to Host Resistance to the Sharp Eyespot Disease” (Frontiers in Plant Science, 2016).
# B1: TaCAD12 (GST-TaCAD12) (Triticum aestivum) (protein)
# chain: MAPTATAAEQSQQHTKKAVGLAALDASGHLSPLAITRRSTGDDDVVIKILYCGICHSDLHSIKNDWKNAKYPMIPGHEIAGEVTEVGKNVTKFKAGDRVGVGCMVNSCQSCESCDKGFENHCPGMIFTYNSVDRDGTRTHGGYSSMVVVHERFVVRFPDAMPLDKGAPLLCAGITVYSPMKYHGLNAPGMHLGVLGLGGLGHVAVKFGKAFGMKVTVISSSPGKKQEALERLGADAFVVSKDADEMKATMSTMDGIINTVSANVPMAPLFGLLKPNGKMIMVGLPEKPIEVPPFALVARNKTLAGSCIGGMRDTQEMLDLAAKHGVTADIEVIGAEYVNTAMERLAKADVRYRFVIDIANTLDKAAAATTE
# notes: N-terminal GST fusion (pGEX-4T-1), expressed in E. coli BL21, purified; tag kept
# What was measured:
# purified protein [1] = substrate: COc1cc(/C=C/C=O)ccc1O; test: purified protein; type: biochemical, Triticum aestivum; conditions: NADPH as co-substrate; GST fusion
# purified protein [2] = substrate: COc1cc(/C=C/C=O)cc(OC)c1O; test: purified protein; type: biochemical, Triticum aestivum; conditions: NADPH as co-substrate; GST fusion
protein,measurement,setting,value
B1,Km,purified protein [1],28.91 ± 3.67 µM
same,Km,purified protein [2],34.18 ± 5.56 µM
